{"source": "patent US20250177521A1"}
{"biological_target": "Fc gamma receptor (FcγR)", "experiment": "cell-based or functional assay", "units": {"mean fold difference in CD107a on CD3-CD56+ NK cells against samples without mAbs, RA": "fold", "mean fold difference in CD107a on CD3-CD56+ NK cells against samples without mAbs, SLE": "fold"}}
{"substance": "Obinutuzumab (antibody)", "mean fold difference in CD107a on CD3-CD56+ NK cells against samples without mAbs, RA": 3.1, "mean fold difference in CD107a on CD3-CD56+ NK cells against samples without mAbs, SLE": 1.8}
{"substance": "rituximab (antibody)", "mean fold difference in CD107a on CD3-CD56+ NK cells against samples without mAbs, RA": 1.2, "mean fold difference in CD107a on CD3-CD56+ NK cells against samples without mAbs, SLE": 1.5}
{"substance": "non-glycoengineered, wild type glycosylated OBZ (antibody)", "mean fold difference in CD107a on CD3-CD56+ NK cells against samples without mAbs, RA": 1.9, "mean fold difference in CD107a on CD3-CD56+ NK cells against samples without mAbs, SLE": 1.4}
